In article PMC6449189:

Key:
[1] = molecular target: Lachnospiraceae bacterium (ND2006) Cas12a (Lachnospiraceae bacterium (ND2006)); test: SEC-MALS
AcrVA4 = test: SEC-MALS

AcrVA4 (natural protein)
stoichiometry N (AcrVA4 per LbCas12a-crRNA) [1]: 2
stoichiometry N (AcrVA4): 2
